Experimental findings from PMC10850970, “Characterization of N-glycosylation and its functional role in SIDT1-Mediated RNA uptake” are described below.

Data set [1] is described as follows: Amplex Red phospholipase assay. Conditions: glycan lost; control: untreated full-length SIDT1.
Data set [2] is described as follows: precipitation after deglycosylation. As to conditions: glycan lost; control: untreated purified SIDT1ECD.
Data set [3] can be described thus: 0-4 h incubation at pH 3.5, SDS-PAGE. As to conditions: glycan changed form; control: SIDT1ECD expressed without kifunensine.
Another data set deals with T1, SIDT1 ECD (Homo sapiens, UniProt Q9NXL6 23-310).
T1 sequence: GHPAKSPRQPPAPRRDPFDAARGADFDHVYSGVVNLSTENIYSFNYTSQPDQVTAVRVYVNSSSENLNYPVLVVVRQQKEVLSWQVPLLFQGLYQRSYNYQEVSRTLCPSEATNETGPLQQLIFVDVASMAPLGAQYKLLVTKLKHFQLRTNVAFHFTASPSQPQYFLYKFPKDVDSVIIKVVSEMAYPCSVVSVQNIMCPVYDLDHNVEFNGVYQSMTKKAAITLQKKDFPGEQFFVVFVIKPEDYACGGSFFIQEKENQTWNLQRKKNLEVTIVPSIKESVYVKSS
Kind of data set: EMSA; pH 5.5; EMSA: 40 mM Tris-acetate pH 5.5, 100 mM NaCl, 2.5 mM EDTA, 5% glycerol, RT 30 min, 2.5 uM RNA; MST: 25 mM MES pH 5.5, 100 mM NaCl, 0.05% Tween-20, 25 C, 5 nM labeled protein. Conditions: protein: recombinant; C-terminal 6xHis; label: 5'-FAM; single strand. In general terms: A gel shift assay detects complexes by their altered migration in electrophoresis.

The target in another data set is T2, SIDT1 ECD-Fc (Homo sapiens, UniProt Q9NXL6 23-310).
T2 sequence: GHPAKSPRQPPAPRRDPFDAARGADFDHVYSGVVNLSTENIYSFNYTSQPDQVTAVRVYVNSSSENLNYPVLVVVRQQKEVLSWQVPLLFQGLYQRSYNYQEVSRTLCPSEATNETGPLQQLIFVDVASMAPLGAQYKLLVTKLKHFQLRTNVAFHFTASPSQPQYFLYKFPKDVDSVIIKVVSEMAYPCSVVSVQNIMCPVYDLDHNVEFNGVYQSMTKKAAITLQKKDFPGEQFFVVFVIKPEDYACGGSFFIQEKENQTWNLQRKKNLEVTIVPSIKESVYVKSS
Description: EMSA; pH 5.5; legend says FAM-labeled RNA; EMSA: 40 mM Tris-acetate pH 5.5, 100 mM NaCl, 2.5 mM EDTA, 5% glycerol, RT 30 min, 2.5 uM RNA; MST: 25 mM MES pH 5.5, 100 mM NaCl, 0.05% Tween-20, 25 C, 5 nM labeled protein. Conditions: protein: recombinant; tags: C-terminal Fc; chain copies: 2; label: 5'-FAM; single strand.

B1: SIDT1: PNGase F (protein)
parent chain: MRGCLRLALLCALPWLLLAASPGHPAKSPRQPPAPRRDPFDAARGADFDHVYSGVVNLSTENIYSFNYTSQPDQVTAVRVYVNSSSENLNYPVLVVVRQQKEVLSWQVPLLFQGLYQRSYNYQEVSRTLCPSEATNETGPLQQLIFVDVASMAPLGAQYKLLVTKLKHFQLRTNVAFHFTASPSQPQYFLYKFPKDVDSVIIKVVSEMAYPCSVVSVQNIMCPVYDLDHNVEFNGVYQSMTKKAAITLQKKDFPGEQFFVVFVIKPEDYACGGSFFIQEKENQTWNLQRKKNLEVTIVPSIKESVYVKSSLFSVFIFLSFYLGCLLVGFVHYLRFQRKSIDGSFGSNDGSGNMVASHPIAASTPEGSNYGTIDESSSSPGRQMSSSDGGPPGQSDTDSSVEESDFDTMPDIESDKNIIRTKMFLYLSDLSRKDRRIVSKKYKIYFWNIITIAVFYALPVIQLVITYQTVVNVTGNQDICYYNFLCAHPLGVLSAFNNILSNLGHVLLGFLFLLIVLRRDILHRRALEAKDIFAVEYGIPKHFGLFYAMGIALMMEGVLSACYHVCPNYSNFQFDTSFMYMIAGLCMLKLYQTRHPDINASAYSAYASFAVVIMVTVLGVVFGKNDVWFWVIFSAIHVLASLALSTQIYYMGRFKIDLGIFRRAAMVFYTDCIQQCSRPLYMDRMVLLVVGNLVNWSFALFGLIYRPRDFASYMLGIFICNLLLYLAFYIIMKLRSSEKVLPVPLFCIVATAVMWAAALYFFFQNLSSWEGTPAESREKNRECILLDFFDDHDIWHFLSATALFFSFLVLLTLDDDLDVVRRDQIPVF
On to B1, for which, in data set [1], the enzymatic_activity result is “no change”. Further, the stability_or_folding result in data set [2] is given as “decreases”.

B2: SIDT1: kifunensine (protein)
parent chain: MRGCLRLALLCALPWLLLAASPGHPAKSPRQPPAPRRDPFDAARGADFDHVYSGVVNLSTENIYSFNYTSQPDQVTAVRVYVNSSSENLNYPVLVVVRQQKEVLSWQVPLLFQGLYQRSYNYQEVSRTLCPSEATNETGPLQQLIFVDVASMAPLGAQYKLLVTKLKHFQLRTNVAFHFTASPSQPQYFLYKFPKDVDSVIIKVVSEMAYPCSVVSVQNIMCPVYDLDHNVEFNGVYQSMTKKAAITLQKKDFPGEQFFVVFVIKPEDYACGGSFFIQEKENQTWNLQRKKNLEVTIVPSIKESVYVKSSLFSVFIFLSFYLGCLLVGFVHYLRFQRKSIDGSFGSNDGSGNMVASHPIAASTPEGSNYGTIDESSSSPGRQMSSSDGGPPGQSDTDSSVEESDFDTMPDIESDKNIIRTKMFLYLSDLSRKDRRIVSKKYKIYFWNIITIAVFYALPVIQLVITYQTVVNVTGNQDICYYNFLCAHPLGVLSAFNNILSNLGHVLLGFLFLLIVLRRDILHRRALEAKDIFAVEYGIPKHFGLFYAMGIALMMEGVLSACYHVCPNYSNFQFDTSFMYMIAGLCMLKLYQTRHPDINASAYSAYASFAVVIMVTVLGVVFGKNDVWFWVIFSAIHVLASLALSTQIYYMGRFKIDLGIFRRAAMVFYTDCIQQCSRPLYMDRMVLLVVGNLVNWSFALFGLIYRPRDFASYMLGIFICNLLLYLAFYIIMKLRSSEKVLPVPLFCIVATAVMWAAALYFFFQNLSSWEGTPAESREKNRECILLDFFDDHDIWHFLSATALFFSFLVLLTLDDDLDVVRRDQIPVF
Take B2: the degradation_or_half_life result in data set [3] is “increases”.
As for UCGCUUGGUGCAGAUCGGGAC (ssRNA) [FAM-ssRNA 21 nt], the binding result with SIDT1 ECD and with SIDT1 ECD-Fc was “binds” in each case.
